Experimental findings from PMC9569855 (International Journal of Molecular Sciences, 2022) are described below.

This experiment addresses SARS-CoV-2 wild type RBD (319-541aa) (SARS-CoV-2, UniProt P0DTC2). As to the kind of experiment: SPR. Particulars: both partners purified.

B1: Bamlanivimab (antibody, V domains shown)
VH: QVQLVQSGAEVKKPGSSVKVSCKASGGTFSNYAISWVRQAPGQGLEWMGRIIPILGIANYAQKFQGRVTITADKSTSTAYMELSSLRSEDTAVYYCARGYYEARHYYYYYAMDVWGQGTAVTVSS
VL: not shown
Take B1: binding was characterised by a dissociation constant (Kd) of 1.4 nM.
